Laboratory results from patent US20250289871A1.

Tests used:
[1] = target: SARS-CoV-2 Delta + T51I + T95I spike protein (authentic virus) (SARS-CoV-2) (UniProt P0DTC2); assay: cell-based or functional assay
[2] = target: SARS-CoV-2 D614G spike protein (authentic virus) (SARS-CoV-2) (UniProt P0DTC2); assay: cell-based or functional assay

## cilgavimab (AZD1061) (antibody)
[1]
  Authentic Virus Neutralization IC50: 0.014 µg/mL
[2]
  Authentic Virus Neutralization IC50: 0.066 µg/mL
